Measured values as given in paper PMC7092807 (Biochemical and Biophysical Research Communications, 2004).

Target: the molecule itself
Assay: SEC

B1: SARS-CoV soluble S ectodomain (Se) (domain or fragment)
chain: not shown
stoichiometry N: 3
